peptoid linker = not defined here
Key:
[1] = ICP-MS of leg muscles for Gd(III) retention after day 4; type: in vivo, mice; settings: after four days; intramuscular PA gel 1 wt %, 10 mol % Gd(III)-PA
Method: To measure degradation in vivo, six wild-type mice received approximately 4 μL injections of PA gels at 1 wt % loaded with 10 mol % Gd(III)-PA relative to C16V3A3E3-NH2. The injections were applied with a modified syringe pump designed to inject while withdrawing the needle to produce a gelled track of PA in situ. Injection volume varied because track length varied slightly with mouse size and small variations in each injection geometry. The tract geometry was chosen to give accurate T1 determinations because imaging slice thickness could be greater without volume averaging effects. A total of five legs were injected with PA1, four legs with PA3, and three with 100% C16V3A3E3-NH2 as a control. Mice were imaged at day 0 immediately after injections and again at day 4. The Gd(III)-PA was clearly visible in all cases (FIG. 5). […]
For Gd(III) analysis, mouse leg muscles were excised and digested in 1 mL of nitric acid per gram of tissue in Teflon tubes. […] Digest was diluted and measured using the same conditions as above.
All measurements used a Thermo X series II ICP-MS (Thermo Fisher Scientific, Waltham, Mass., USA) operating with an ESI SC-2 autosampler (Omaha, Nebr., USA). […] The two most common isotopes of Gd, 157Gd and 158Gd, were measured. 115In and 165Ho were measured as internal standards.

[2] = 1H NMRD profiles, fits with modified Florence approach; type: physicochemical; settings: fits at 37° C.
Method: ^1NMRD profiles were collected with a Stelar Spinmaster FFC-2000-1T fast field cycling relaxometer in the 0.01-40 MHz proton Larmor frequency range, at 293 and 310 K. Longitudinal relaxation rates were measured with an error smaller than 1%. Proton relaxivities were calculated by subtracting the diamagnetic contribution of the peptide nanofibers in the absence of Gd(III) from the relaxation rates of the paramagnetic samples, and normalizing to 1 mM Gd(III) concentration. The profiles were analyzed using the Freed model for outer-sphere relaxation (refs. 48, 49; incorporated by reference in their entireties) and the modified Florence NMRD program for the inner-sphere relaxation (refs. 45, 46, 50; incorporated by reference in their entireties). The effect of static ZFS on nuclear relaxation is considered along with transient ZFS, where modulation is responsible for electron relaxation, provided molecular reorientation time is much longer than electron relaxation time (refs 51,52; incorporated by reference in their entireties). In order to establish which parameter was dominant in relaxivity changes, NMRD profiles of each PA were measured. NMRD profiles for all four PAs at 25° and 37° C. are shown in FIG. 3 with parameter fits obtained using the “modified Florence” approach (refs. 44-46;1 incorporated by reference in their entireties). In the fits, a Lipari-Szabo order parameter S^2 was included to consider the effect of local motions which may superimpose to the global motion of the nanostructures. A smaller S^2 value indicates a less restricted local mobility (e.g., a more flexible linkage between fiber and macrocycle). […] The NMRD fits show τm is primarily responsible for the variation in relaxivity observed upon annealing and Ca2+ cross-linking (Table 2). It is contemplated that annealing and calcium addition change macrocycle presentation on the fiber surface, extending them from the structure with increased peptide packing density and facilitating faster water exchange. […] The ^1H NMRD profiles were analyzed assuming one water molecule regularly coordinated to the Gd(III) ion in the presence of freely diffusing outer-sphere water. The contribution of the coordinated water protons […]) to the relaxation of bulk water protons (R1) largely depends on the τM of coordinated water if τ[…], as expected for Gd(HP-DO3A), according to the following relationship: R1=fM(1/[…]+τM)^-1+Ros where f^M is the mole fraction of ligand nuclei in bound positions and Ros is the outer-sphere contribution. […] is calculated by considering the simultaneous presence of both static (D) and transient (Δt) ZFS, as needed for Gd(III) complexes, through the “modified Florence” NMRD program, 4-6 assuming slow rotation, i.e. the molecular tumbling time τR is much longer than the electron relaxation time Tle. The PA fiber's micron-scale size assures that TR could be fixed to a large, constant value (≥100 ns) in the calculation of the relaxation profile. The ^1H NMRD profiles of PA 1 were repeated at both temperatures using the same Δt value of 0.0142 cm-1, D=0.046 cm-1, θ=42° (angle between the z-axis of the ZFS tensor and the metal-water direction) and a correlation time for electron relaxation τV=24 ps. A distance of closest approach of diffusing water molecules (d) of 7-10 Angstroms should be set, i.e. somewhat larger than usually found in isolated Gd(III) chelates (3.5-4 Å). […]

[3] = T1 and T2 relaxivity (r1, r2) at 1.41 T, Bruker Minispect relaxometer; type: physicochemical; settings: 1.41 tesla
Method: Using a Bruker Minispect relaxometer operating at 1.41 T, T1 and T2 relaxivity values (r1 and r2) were determined for each agent (Table 1). […] Thermal annealing followed by addition of CaCl2 caused complex changes in the observed agent relaxivity (Table 1). […] This increased accessibility is consistent with a more extended molecular structure as indicated by SAXS.
All concentrations used in relaxivity determination were obtained using ICP-MS. Samples were digested using ACS reagent grade nitric acid (70%) for a least 2 hours at 70° C. Samples were diluted in filtered, deionized water. A standard containing the elements Bi, Ho, In, Li, Sc, Tb, and Y was added to a final concentration of 5 ng/mL (Inorganic Ventures, Christiansburg, Va., USA). Final nitric acid concentration was 3%. The instrument was calibrated using a serial dilution of Gd(III) standards (Inorganic Ventures, Christiansburg, Va., USA) with nitric acid and internal standard concentrations identical to the samples. Calibration was conducted with 1.000, 5.000, 10.00, 20.00, 50.00, 100.0, and 200.0 ng/mL Gd(III) standards.
T1 Measurements were performed at 1.41 T with a Bruker Minispect mq60 magnet, using an inversion recovery sequence. T2 measurements were acquired using a Carr-Purcell-Meiboom-Gill (CPMG) pulse sequence. PAs were weighed out and dissolved in Millipore water to form 1 mg/mL solutions, and then these solutions were serial diluted to 0.5, 0.25, 0.125, 0.05, and 0.01 mg/mL concentrations. For each concentration, T1 and T2 were measured. These solution concentrations were then measured using ICP-MS for relaxivity determination. Samples were lyophilized and resuspended in 50 mM Tris and 150 mM NaCl buffer. These were then adjusted using small volumes of 0.1 M NaOH to reach pH 7.4. T1 and ICP-MS measurements were then taken of these solutions. The relaxometer tubes were heated at 80° C. for 30 min in a water bath. The bath was allowed to come to room temperature over several hours. T1 times were measured. Finally, 100 μL of 20 mM CaCl2 solution was added to each tube. The tubes were vortex-mixed and allowed to stand for 20 minutes. ICP-MS and T1 measurements were conducted once more.

[4] = Addition of CaCl2 to annealed solution

Molecule	Gd(III) retention: remained in the mouse leg (ICP-MS) [1] [%]	τm (water exchange lifetime), best-fit value ([2]; Annealed) [ns]	τm (water exchange lifetime), best-fit value ([2]; Buffered) [ns]	τm (water exchange lifetime), best-fit value ([2]; Ca^2+) [ns]	S^2 (Lipari-Szabo order parameter), best-fit value [2]	τlocal, best-fit value [2] [ns]	r1 (T1 relaxivity) [3, 4] [mM⁻¹ s⁻¹]	r2 (T2 relaxivity) [3, 4] [mM⁻¹ s⁻¹]	r1 (T1 relaxivity) ([3]; After Thermal Annealing) [mM⁻¹ s⁻¹]	r2 (T2 relaxivity) ([3]; After Thermal Annealing) [mM⁻¹ s⁻¹]	r1 (T1 relaxivity) ([3]; H2O) [mM⁻¹ s⁻¹]	r2 (T2 relaxivity) ([3]; H2O) [mM⁻¹ s⁻¹]	r1 (T1 relaxivity) ([3]; Tris Buffer (pH 7.4)) [mM⁻¹ s⁻¹]	r2 (T2 relaxivity) ([3]; Tris Buffer (pH 7.4)) [mM⁻¹ s⁻¹]
CCCCCCCCCCCCCCCC(=O)N[C@H](C(=O)N[C@H](C(=O)N[C@H](C(=O)N[C@@H](C)C(=O)N[C@@H](C)C(=O)N[C@@H](C)C(=O)N[C@@H](CCC(=O)O)C(=O)N[C@@H](CCC(=O)O)C(=O)N[C@@H](CCC(=O)O)C(=O)NCC(=O)N(CC(=O)N(CC(=O)N(CC(N)=O)Cc1cn(CC(O)CN2CCN(CC(=O)O)CCN(CC(=O)O)CCN(CC(=O)O)CC2)nn1)Cc1cn(CC(O)CN2CCN(CC(=O)O)CCN(CC(=O)O)CCN(CC(=O)O)CC2)nn1)Cc1cn(CC(O)CN2CCN(CC(=O)O)CCN(CC(=O)O)CCN(CC(=O)O)CC2)nn1)C(C)C)C(C)C)C(C)C (some centres unmarked) (Gd complex, metal not drawn) [PA3]	54±9	–	–	–	–	–	–	–	–	–	–	–	–	–
C16-VVVAAAEEE-(peptoid linker)-(Gd(HP-DO3A) macrocycle) (C16-VVVAAAEEE-{peptoid linker-Gd(HP-DO3A)}; reading uncertain; also: Gd(III) chelated in HP-DO3A macrocycle) [PA2, V3A3E3 peptide amphiphile, Gd(III) contrast agent conjugated at the C-terminus without a glycine linker]	–	540	640	410	0.3	4	21.7 ± 0.1	45 ± 2	16.9 ± 0.2	28.6 ± 0.6	17.3 ± 0.8	39 ± 2	16.7 ± 0.2	32.2 ± 0.5

From patent US20180221513A1, “CONTRAST-AGENT-LABELED PEPTIDE AMPHIPHILE NANOFIBERS” (Northwestern University, priority 2015, published 2018)
